According to paper PMC6889914, “Identifying dynamic, partially occupied residues using anomalous scattering” (Acta Crystallographica. Section D, Structural Biology, 2019):
Where no end group is shown, it is not given here. [ ]: non-standard residue; d: D form. Phe(4-I) = N[C@@H](Cc1ccc(I)cc1)C(=O)O

T1: Spy H96L (UniProt P77754 24-161, H96L)
T1 construct: also called Super Spy chaperone mutant Spy H96L
T1 sequence (looked up): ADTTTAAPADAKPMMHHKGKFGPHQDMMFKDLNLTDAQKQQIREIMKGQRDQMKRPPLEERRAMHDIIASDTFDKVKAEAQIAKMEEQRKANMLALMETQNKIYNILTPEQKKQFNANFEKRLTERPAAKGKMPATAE

T2: Spy H96L (UniProt P77754 24-161, H96L)
T2 sequence: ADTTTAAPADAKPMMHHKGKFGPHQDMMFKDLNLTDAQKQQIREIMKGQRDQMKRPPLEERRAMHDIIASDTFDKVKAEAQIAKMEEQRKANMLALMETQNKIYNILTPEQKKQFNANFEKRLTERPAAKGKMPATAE

B1: Im7 6–26 peptide (wild type) (peptide)
peptide: SISDYTEAEFVQLLKEIEKEN
notes: also called wild-type Im7 6–26 peptide; Im7 peptide
B2: Im7 6–26 peptide K20pI-Phe (peptide)
peptide: SISDYTEAEFVQLLFEIEKEN
notes: also called L20pI-Phe (as misprinted in places)
B3: Im7 6–26 peptide L18pI-Phe (peptide)
peptide: SISDYTEAEFVQ[Phe(4-I)]LKEIEKEN
B4: Im7 6–26 peptide L19pI-Phe (peptide)
peptide: SISDYTEAEFVQL[Phe(4-I)]KEIEKEN

Columns and labels:
[1] = biological target: T1, Spy H96L; assay: ITC; MicroCal iTC200; titration of Spy H96L (1.25 mM) with the Im7 6–26 peptides (0.11 µM wild type, 0.055 µM pI-Phe peptides); 10°C; 40 mM HEPES–NaOH pH 7.5, 100 mM NaCl; 2 µl injections at 180 s; one-site model; settings: both partners purified
[2] = biological target: T2, Spy H96L; assay: ITC

| Binder | Kd [1] | Ka [2] | binding result [1] |
| --- | --- | --- | --- |
| B1 | 7.8 ± 0.6 µM | 102000 M⁻¹ |  |
| B2 |  | 218000 M⁻¹ | binds |
| B3 |  | 1.59e+06 M⁻¹ | binds |
| B4 |  | 219000 M⁻¹ | binds |
